Results reported in article PMC3917506.
Like-named read-outs stand apart in the source and are kept apart here.

Key:
Assay in all cases: FRET or BRET
Venus-IQGAP1 (human) = Venus-IQGAP1 (human) (UniProt P46940)
mCherry-actin [1] = molecular target: mCherry-actin (UniProt P60709)
mCherry-actin [2] = molecular target: mCherry-actin (UniProt P60709); remark: listed apart in the source
mCherry-actin [3] = molecular target: mCherry-actin (UniProt P60709); remark: listed apart in the source

Chain of Venus-IQGAP1 (P46940 whole entry): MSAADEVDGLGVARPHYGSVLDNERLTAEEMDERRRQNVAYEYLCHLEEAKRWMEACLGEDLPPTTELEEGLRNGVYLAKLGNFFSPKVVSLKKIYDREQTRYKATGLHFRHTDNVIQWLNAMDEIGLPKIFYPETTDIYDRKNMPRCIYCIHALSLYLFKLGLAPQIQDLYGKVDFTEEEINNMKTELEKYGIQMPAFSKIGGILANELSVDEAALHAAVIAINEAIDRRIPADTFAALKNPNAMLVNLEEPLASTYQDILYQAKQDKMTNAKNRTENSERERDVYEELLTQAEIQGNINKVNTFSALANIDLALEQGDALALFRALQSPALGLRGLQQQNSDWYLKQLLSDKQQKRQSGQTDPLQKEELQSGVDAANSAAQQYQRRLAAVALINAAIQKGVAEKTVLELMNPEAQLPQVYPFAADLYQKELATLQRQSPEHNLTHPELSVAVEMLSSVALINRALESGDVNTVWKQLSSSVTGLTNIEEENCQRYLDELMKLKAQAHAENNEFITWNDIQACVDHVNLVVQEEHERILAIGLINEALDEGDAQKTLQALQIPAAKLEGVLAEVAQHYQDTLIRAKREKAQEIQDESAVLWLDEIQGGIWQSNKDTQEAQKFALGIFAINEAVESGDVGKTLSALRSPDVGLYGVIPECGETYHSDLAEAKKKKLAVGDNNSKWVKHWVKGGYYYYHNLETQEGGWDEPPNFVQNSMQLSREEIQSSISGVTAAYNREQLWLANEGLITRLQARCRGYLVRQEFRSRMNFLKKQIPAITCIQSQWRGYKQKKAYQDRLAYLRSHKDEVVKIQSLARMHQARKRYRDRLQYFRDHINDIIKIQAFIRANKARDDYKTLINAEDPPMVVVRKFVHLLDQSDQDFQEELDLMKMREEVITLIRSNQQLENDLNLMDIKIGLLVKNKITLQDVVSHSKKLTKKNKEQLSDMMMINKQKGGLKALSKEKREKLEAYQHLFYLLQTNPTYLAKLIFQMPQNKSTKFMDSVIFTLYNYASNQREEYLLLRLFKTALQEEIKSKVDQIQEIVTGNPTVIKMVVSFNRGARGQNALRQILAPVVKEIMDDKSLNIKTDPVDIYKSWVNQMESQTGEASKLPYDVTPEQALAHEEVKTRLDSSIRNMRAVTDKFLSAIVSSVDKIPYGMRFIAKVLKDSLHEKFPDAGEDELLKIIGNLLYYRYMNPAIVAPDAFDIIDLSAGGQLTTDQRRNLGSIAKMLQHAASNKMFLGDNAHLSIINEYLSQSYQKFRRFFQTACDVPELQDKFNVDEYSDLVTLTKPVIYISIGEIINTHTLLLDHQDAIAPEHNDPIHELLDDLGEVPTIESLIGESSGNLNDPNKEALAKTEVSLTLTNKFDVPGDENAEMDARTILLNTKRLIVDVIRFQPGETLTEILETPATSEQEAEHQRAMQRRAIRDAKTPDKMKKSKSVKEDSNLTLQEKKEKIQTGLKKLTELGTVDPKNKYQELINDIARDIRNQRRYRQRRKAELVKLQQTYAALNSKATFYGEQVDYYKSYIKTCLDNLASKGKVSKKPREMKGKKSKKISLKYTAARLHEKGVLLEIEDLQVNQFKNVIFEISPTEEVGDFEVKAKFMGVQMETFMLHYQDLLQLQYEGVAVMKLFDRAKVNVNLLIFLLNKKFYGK
Chain of CFP-Cdc42, P60953 1-191 (natural protein; other documents disagree on this pair) (P60953 whole entry): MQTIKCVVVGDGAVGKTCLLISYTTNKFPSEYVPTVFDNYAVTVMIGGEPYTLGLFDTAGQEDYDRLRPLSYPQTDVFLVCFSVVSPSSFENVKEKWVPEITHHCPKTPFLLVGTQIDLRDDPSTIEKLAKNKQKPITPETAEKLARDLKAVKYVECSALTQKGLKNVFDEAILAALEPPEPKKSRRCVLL
Chain of Venus-IQGAP1 (human) (P46940 whole entry): as the sequence (P46940 whole entry) above

Row | FRET efficiency E% at low D:A ratios (regression line) (Venus-IQGAP1 (human)) [%] | average FRET efficiency E% (Venus-IQGAP1 (human)) [%] | average FRET efficiency E% (mCherry-actin [1]) [%] | FRET efficiency E% at low D:A ratios (regression line) (mCherry-actin [2]) [%] | average FRET efficiency E% (mCherry-actin [2]) [%] | FRET efficiency E% at low D:A ratios (regression line) (mCherry-actin [3]) [%] | Substance
1 | 25 | 20 | – | – | – | – | CFP-Cdc42, P60953 1-191 (natural protein; other documents disagree on this pair)
2 | – | – | 26 | 25 to 35 | 31 | 25 to 35 | Venus-IQGAP1 (from UniProt P46940 1-1657) (natural protein)
